Test results reported in patent US20200407445A1 (ITEOS THERAPEUTICS, published 2020).
Numbering of substitutions follows the chain as printed.

How the values were obtained:
[1] = biological target: T1, human TIGIT expressed on cells (human, UniProt Q495A1 22-244); assay: flow cytometry on Jurkat-hTIGIT
T1 construct: whole, on cells; on Jurkat E6.1 cells transduced with human TIGIT, on Promega TIGIT Effector cells or on human primary T cells; the assay field says which; also called hTIGIT; Jurkat-hTIGIT
T1 sequence (looked up): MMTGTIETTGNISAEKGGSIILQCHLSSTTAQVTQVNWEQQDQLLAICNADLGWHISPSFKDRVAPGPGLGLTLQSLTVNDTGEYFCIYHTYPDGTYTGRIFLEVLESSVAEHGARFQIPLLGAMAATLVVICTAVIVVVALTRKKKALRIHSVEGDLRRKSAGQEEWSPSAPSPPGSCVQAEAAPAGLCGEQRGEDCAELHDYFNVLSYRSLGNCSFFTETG
Description: Antibodies were incubated with the cells for 20 min at 4° C. in FACS buffer. […] Fluorescence intensity was analysed using LSR BD Fortessa and cell binding was recorded as the median fluorescence intensity of PE in cells expressing TIGIT at their surface.
The half-maximal concentration of binding (EC50) to Jurkat-hTIGIT was calculated using a four-variable curve-fit equation in Prism.

[2] = biological target: T1, human TIGIT expressed on cells; assay: flow cytometry, primary CD8+ T cells of healthy human PBMC, MFI
Description: Isolated human PBMCs from healthy volunteers were analysed for binding by antagonist anti-TIGIT antibodies. Cells were distributed at 1×10⁵ cells per well. Cells were incubated with anti-CD16 (Clone 3G8, BioLegend 302002), CD32 (Clone FLI8.26, BD Bioscience 557333) and CD64 (BD Bioscience 555525) at room temperature for 10 min, and the indicated anti-human TIGIT antibody clones were directly added at a final concentration of 8; 4; 2; 1; 0.5; 0.25; 0.125; 0.062; 0.031; 0.016; 8×10⁻³ and 4×10⁻³ nM in FACS buffer and incubated for 20 min at 4° C. […] Then, cells were washed and incubated with the following antibodies and LVD mix: anti-CD4-PercP-Cy5.5 (clone A161A1, BioLegend 357414); anti-CD8-BV510 (clone SK1, BD Bioscience 563919) and LVD efluor 660 (eBioscience 65-0864-18).
The EC50 values for binding to CD8+ human primary T cells were calculated using the MFI signal on living TIGIT+CD8+ T cells.

[3] = biological target: T1, human TIGIT expressed on cells; assay: flow cytometry, primary CD8+ T cells of cancer patients' PBMC, MFI
Description: Cells were distributed at 1×10^5 cells per well. […] Then, cells were washed and incubated with the following antibodies and life viability dye (LVD) mix: anti-CD4-PercP-Cy5.5 (clone A161A1, BioLegend 357414); anti-CD8-BV510 (clone SK1, BD Bioscience 563919) and LVD efluor 520 (eBioscience 65-0867-14). Cells were washed and fixed and surface staining was quantified using BD LSR Fortessa. Flow cytometry data was analysed using FlowJo V10.1. TIGIT MFI on gated LVD-TIGIT+CD8+ cells was used to calculate EC50 values.

[4] = biological target: T1, human TIGIT expressed on cells; assay: flow cytometry, competition with CD155-His (15 ug/ml) on Jurkat-hTIGIT
[5] = biological target: T2, recombinant human TIGIT protein (construct not stated) (human, UniProt Q495A1 22-141, limits assumed); assay: Biacore T200, IgG captured by anti-human Fc, antigen in solution, 1:1 kinetic model
T2 construct: also called hTIGIT (Creative Biomart); recombinant TIGIT protein
T2 sequence (looked up): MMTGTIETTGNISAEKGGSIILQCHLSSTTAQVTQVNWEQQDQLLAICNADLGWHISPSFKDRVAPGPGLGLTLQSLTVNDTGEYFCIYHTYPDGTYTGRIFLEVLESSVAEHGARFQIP
Description: Biosensor analysis was conducted at 25° C. in a HBS-EP buffer system (10 mM HEPES pH 7.3, 150 mM NaCl, 3 mM EDTA, 0.05% Tween20) using Biacore T200 technology, CMS sensor chip (run at Novalix, France). The sample hotel was maintained at 8° C. Goat anti-human IgG capture antibody (Fcγ fragment specific, Jackson ImmunoResearch Laboratories) was immobilized (10000 RU) to both flow cells of the sensor chip using standard amine coupling chemistry. This surface type provided a format for reproducibly capturing fresh analysis antibody after each regeneration step. Flow cell 2 was used to analyse captured antibody while flow cell 1 was used as a reference flow cell. […] Two blank (buffer) injections also were run and used to assess and subtract system artefacts. The association (300 s) and dissociation (600 s) phases for all antigen concentrations were performed at a flow rate of 30 uL/min. The surface was regenerated with three sequential injections (15 s, 15 s and 60 s) of 10 mM glycine-HCl, pH 1.5. The obtained sensorgrams were fitted globally to a 1:1 model (assuming the same kinetic values for all applied concentrations).

[6] = biological target: T3, Human TIGIT-His (human, UniProt Q495A1 22-141, biotinylated in the ForteBio Fab assay); assay: ForteBio BLI, Fab KD, monovalent
T3 construct: bought (Creative Biomart); also called Biotinylated Human TIGIT HIS; TIGIT-His monomer; not shown: His tag
T3 sequence (looked up): T2 sequence (looked up)

[7] = biological target: T4, Mouse TIGIT-Fc (mouse, UniProt P86176 29-148, limits assumed); assay: ForteBio BLI, Fab KD, monovalent
T4 construct: not shown: Fc part
T4 sequence (looked up): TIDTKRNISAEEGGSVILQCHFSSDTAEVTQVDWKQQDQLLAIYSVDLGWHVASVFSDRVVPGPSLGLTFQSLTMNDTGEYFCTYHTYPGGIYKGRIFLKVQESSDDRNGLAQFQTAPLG

[8] = biological target: T5, Cyno TIGIT-Fc (cynomolgus, UniProt A0A7N9I9V4 89-209); assay: ForteBio BLI, Fab KD, monovalent
T5 construct: not shown: Fc part

[9] = biological target: T1, human TIGIT expressed on cells; assay: cell-based or functional assay
[10] = biological target: T1, human TIGIT expressed on cells; assay: cell-based or functional assay; remark: listed apart in the source

T5 sequence (A0A7N9I9V4 entry or part of it): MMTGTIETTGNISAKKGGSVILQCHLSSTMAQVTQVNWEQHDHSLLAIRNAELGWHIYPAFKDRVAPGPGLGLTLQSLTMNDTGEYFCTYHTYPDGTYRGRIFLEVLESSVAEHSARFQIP

B1: TIG1 (comparative anti-TIGIT antibody, human IgG1) (antibody, V domains shown)
VH: DVQLVESGGGLVQPGGSRKLSCAASGFTFSNFGMHWVRQAPEKGLEWVAFISSGSSSIYYADTVKGRFTISRDNPKNTLFLQMTSLRSEDTAMYYCARMRLDYYAMDYWGQGTSVTVSS
VL: DVQITQSPSYLAASPGETITINCRASKSISKYLAWYQEKPGKTNKLLIYSGSTLQSGIPSRFSGSGSGTDFTLTISSLEPEDFAMYYCQQHNEYPWTFGGGTKLEIK
notes: from WO2017/152088; made in HEK cells as human IgG1
EC50 [1]: 0.17 nM | Fold change of EC50 over EC50 of best clone (31282_wu) [1]: 1.6 fold | EC50 [2]: 0.38 nM | Fold change of EC50 over EC50 of best clone (31282_wu) [2]: 2 fold | EC50 [3]: 0.33 nM | Fold change of EC50 over EC50 of best clone (31282) [3]: 2.7 fold | Fold change of IC50 over IC50 of best clone (31282_up) [4]: 1.6 fold | IC50 [4]: 0.06 nM | Kd [5]: 2.49 nM | koff [5]: 0.0131 s⁻¹

B2: Fab of anti-TIGIT clone 29494 (Fab, V domains shown)
VH: QVQLQESGPGLVKPSETLSLTCTVSGGSISSGSYYLAWIRQPPGKGLEWIGSIFRSGSTYYNPSLESRVTISVDTSKNQFSLKLSSVTAADTAVYYCAIEGANFKDFGYVAFDIWGQGTMVTVSS
VL: EIVMTQSPATLSVSPGERATLSCRASQSVSSNLAWYQQKPGQAPRLLIYGASTRATGIPARFSGSGSGTEFTLTISSLQSEDFAVYYCQQSPPWPRTFGGGTKVEIK
Kd [6]: 1.66 nM | Kd [7]: 53.6 nM | Kd [8]: 18.6 nM

B3: Fab of anti-TIGIT clone 29499 (Fab, V domains shown)
VH: B2 VH with V2L, G32S, S33R, L36W, F54G, R55T, E66K, A90T, K105R
VL: B2 VL
Kd [6]: 1.66 nM | Kd [7]: 25.5 nM | Kd [8]: 14.5 nM

B4: Fab of anti-TIGIT clone 29478 (Fab, V domains shown)
VH: EVQLVESGGGVVQPGRSLRLSCAASGFTFESYGMVWVRQAPGKGLEWVASILYDGSNRYYADSVKGRFTVSRDNSKNTLYLQMNSLRAEDTAVYYCARVSYYYDSVELRWAEYFQHWGQGTLVTVSS
VL: EIVLTQSPATLSLSPGERATLSCRASQSVSSYLAWYQQKPGQAPRLLIYDASKRATGIPARFSGSGSGTDFTLTISSLEPEDFAVYYCQQVHNFPLTFGGGTKVEIK
Kd [6]: 0.703 nM | Kd [7]: 91.8 nM | Kd [8]: 1.26 nM

B5: 22G2 (comparative anti-TIGIT antibody, human IgG1) (antibody, V domains shown)
VH: QVHLQESGPGLVKPSETLSLTCTVSGGSVSSGIYYWSWIRQPPGKGLEWIGYIYYSGSTNYNPSLKSRVTISVDTSKNQFSLKLSSVTAADTAVYYCARDYYVSGNYYNVDYYFFGVDVWGQGTTVTVSS
VL: EIVLTQSPATLSLSPGERATLSCRASQSVSSYLAWYQQKPGQAPRLLIYDASNRATGIPARFSGSGSGTDFTLTISSLEPEDFAVYYCQQRSNWPPLFTFGPGTKVDIK
notes: from WO2016/106302; made in HEK cells as human IgG1
EC50 (nM), luciferase, Jurkat-hTIGIT [9]: 5.2 nM | Fold change of EC50 over EC50 of best clone (31282_up) [9]: 1.6 fold | Induction over Isotype control (fold change), luciferase, Jurkat-hTIGIT + CD155 aAPC/CHO-K1 [9]: 5.3 fold | EC50 (nM), IFNg, human primary CD8+ T cells [10]: 0.41 nM | Fold change of EC50 over EC50 of best clone (31282_wu) [10]: 3.1 fold | Induction over isotype control (fold change), IFNg, human primary CD8+ T cells + CD155 aAPC/CHO-K1 [10]: 1.5 fold | EC50 [1]: 0.32 nM | Fold change of EC50 over EC50 of best clone (31282_wu) [1]: 3 fold | EC50 [2]: 1.17 nM | Fold change of EC50 over EC50 of best clone (31282_wu) [2]: 6.1 fold | EC50 [3]: 0.37 nM | Fold change of EC50 over EC50 of best clone (31282) [3]: 3.1 fold | Fold change of IC50 over IC50 of best clone (31282_up) [4]: 2.2 fold | IC50 [4]: 0.09 nM | Kd [5]: 0.071 nM | koff [5]: 0.000178 s⁻¹

B6: Fab of anti-TIGIT clone 29513 (Fab, V domains shown)
VH: QVQLVQSGAEVKKPGSSVKVSCKASGGTFQNYAISWVRQAPGQGLEWMGVIVPIFGTANYAQKFQGRVTVTADESTSTAYMELSSLRSEDTAVYYCARLHLGQKAYYGMDVWGQGTTVTVSS
VL: DIQMTQSPSSLSASVGDRVTITCRASQSISSYLNWYQQKPGKAPKLLIYAASSLQSGVPSRFSGSGSGTDFTLTISSLQPEDFATYYCQQRYVFPPTFGGGTKVEIK
Kd [6]: 0.774 nM | Kd [7]: 85.5 nM | Kd [8]: 9.56 nM

B7: Fab of anti-TIGIT clone 29523 (Fab, V domains shown)
VH: EVQLVESGGGVVQPGRSLRLSCAASGFTFGSYYMHWVRQAPGKGLEWVAVIWPDGSNKLYADSVKGRFTISRDNSKNTLYLQMNSLRAEDTALYYCAKPVPKSRALDVWGQGTMVTVSS
VL: DIQLTQSPSSVSASVGDRVTITCRASQGISSWLAWYQQKPGKAPKLLIYGASSLQSGVPSRFSGSGSGTDFTLTISSLQPEDFATYYCQQAFYLPWTFGGGTKVEIK
Kd [6]: 3.84 nM | Kd [7]: 18.9 nM | Kd [8]: 27.9 nM

B8: Fab of anti-TIGIT clone 29520 (Fab, V domains shown)
VH: QVQLVESGGGLVQPGRSLRLSCAASGFTFRDYAMHWVRQAPGKGLEWVSGITWNSGLIGYADSVKGRFTISRDNAKNSLYLQMNSLRAEDTALYYCAKPVPRLRGLDVWGQGTMVTVSS
VL: B7 VL
Kd [6]: 1.31 nM | Kd [7]: 1.95 nM | Kd [8]: 2.68 nM

B9: Fab of anti-TIGIT clone 26493 (Fab, V domains shown)
VH: B8 VH with Q1E, R30G, L57S, R102K, L103S
VL: B7 VL
Kd [6]: 40.6 nM | Kd [7]: 26.7 nM | binding result [8]: no binding

B10: Fab of anti-TIGIT clone 29527 (Fab, V domains shown)
VH: B7 VH with E1Q, G30S, Y32S, W52G, P53A, L59Y, K65E, K102R, S103R, A105G
VL: B7 VL
Kd [6]: 1.33 nM | Kd [7]: 20.2 nM | Kd [8]: 17.6 nM

B11: Fab of anti-TIGIT clone 26432 (Fab, V domains shown)
VH: QVQLVQSGAEVKKPGSSVKVSCKASGGTFSSYAISWVRQAPGQGLEWMGGIIPIFGTANYAQKFQGRVTITADESTSTAYMELSSLRSEDTAVYYCAREAQSYRVPFDIWGQGTMVTVSS
VL: EIVMTQSPATLSVSPGERATLSCRASQSVSSNLAWYQQKPGQAPRLLIYGASTRATGIPARFSGSGSGTEFTLTISSLQSEDFAVYYCQQYAIWPPFTFGGGTKVEIK
Kd [6]: 13.1 nM | binding result [7]: no binding | binding result [8]: no binding
